The data set can be described thus: total protein half-life in vivo (active degradation + dilution); higher = more stable protein.
Where [1] appears, read: E. coli NCM3722 delta-clpP delta-lon delta-hslV, growth: N-lim chemostat, doubling time 6 h.
The mark [2] stands for this setting: E. coli NCM3722 delta-clpP, growth: N-lim chemostat, doubling time 6 h.
Where [3] appears, read: E. coli NCM3722 delta-hslV, growth: N-lim chemostat, doubling time 6 h.
Setting [4] is: E. coli NCM3722 delta-lon, growth: N-lim chemostat, doubling time 6 h.
Setting [5] is: E. coli NCM3722 delta-smpB, growth: N-lim chemostat, doubling time 6 h.
[6] abbreviates: wild type E. coli NCM3722, growth: C-lim chemostat, doubling time 3 h.
[7] abbreviates: wild type E. coli NCM3722, growth: C-lim chemostat, doubling time 6 h.
Setting [8] is: wild type E. coli NCM3722, growth: C-lim chemostat, doubling time 12 h.
The mark [9] stands for this setting: wild type E. coli NCM3722, growth: N-lim chemostat, doubling time 6 h.
Setting [10] is: wild type E. coli NCM3722, growth: N-lim chemostat, doubling time 12 h.
Where [11] appears, read: wild type E. coli NCM3722, growth: P-lim chemostat, doubling time 6 h.
Setting [12] is: wild type E. coli NCM3722, growth: P-lim chemostat, doubling time 12 h.

± gives the standard deviation of the averaged measurements.

On to “MNELDGIKQFTTVVADSGDIESIRHYHPQDATTNPSLLLKAAGLSQYEHLIDDAIAWGKKNGKTQEQQVVAACDKLAVNFGAEILKIVPGRVSTEVDARLSFDKEKSIEKARHLVDLYQQQGVEKSRILIKLASTWEGIRAAEELEKEGINCNLTLLFSFAQARACAEAGVFLISPFVGRIYDWYQARKPMDPYVVEEDPGVKSVRNIYDYYKQHHYETIVMGASFRRTEQILALTGCDRLTIAPNLLKELQEKVSPVVRKLIPPSQTFPRPAPMSEAEFRWEHNQDAMAVEKLSEGIRLFAVDQRKLEDLLAAKL [P0A867]”, for which the “total protein half-life in vivo” value was determined as 5.487 ± 0.013 h under setting [1]; 5.51 ± 0.43 h under setting [2]; 5.35 ± 0.25 h under setting [3]; 5.76 ± 0.63 h under setting [4]; 5.19 ± 0.4 h under setting [5]; 3.12 ± 0.12 h under setting [6]. Moreover, the “total protein half-life in vivo” value is 5.95 ± 0.33 h under setting [7]; 11.7 ± 0.016 h under setting [8]; 5.19 ± 0.21 h under setting [9]; 9.85 ± 1.3 h under setting [10]; 5.9 ± 0.16 h under setting [11]; 12.8 ± 0.16 h under setting [12].
As for “MVKKSEFERGDIVLVGFDPASGHEQQGAGRPALVLSVQAFNQLGMTLVAPITQGGNFARYAGFSVPLHCEEGDVHGVVLVNQVRMMDLHARLAKRIGLAADEVVEEALLRLQAVVE”, the “total protein half-life in vivo” value under setting [7] is 6.08 h, the “total protein half-life in vivo” value under setting [10] came to 6.76 h and the “total protein half-life in vivo” value under setting [12] was 10.7 h.
Take “MIKKTTEIDAILLNLNKAIDAHYQWLVSMFHSVVARDASKPEITDNHSYGLCQFGRWIDHLGPLDNDELPYVRLMDSAHQHMHNCGRELMLAIVENHWQDAHFDAFQEGLLSFTAALTDYKIYLLTIRSNMDVLTGLPGRRVLDESFDHQLRNAEPLNLYLMLLDIDRFKLVNDTYGHLIGDVVLRTLATYLASWTRDYETVYRYGGEEFIIIVKAANDEEACRAGVRICQLVDNHAITHSEGHINITVTAGVSRAFPEEPLDVVIGRADRAMYEGKQTGRNRCMFIDEQNVINRV”: the “total protein half-life in vivo” value reads like this: under setting [5], 1.44 h; under setting [10], 3.5 h.
Take “MNAPFTYSSPTLSVEALKHSIAYKLMFTIGKDPVVANKHEWLNATLFAVRDRLVERWLRSNRAQLSQETRQVYYLSMEFLIGRTLSNAMLSLGIYEDVQGALEAMGLNLEELIDEENDPGLGNGGLGRLAACFLDSLATLGLPGRGYGIRYDYGMFKQNIVNGSQKESPDYWLEYGNPWEFKRHNTRYKVRFGGRIQQEGKKTRWIETEEILGVAYDQIIPGYDTDATNTLRLWSAQASSEINLGKFNQGDYFAAVEDKNHSENVSRVLYPDDSTYSGRELRLRQEYFLVSSTIQDILSRHYQLHKTYDNLADKIAIHLNDTHPVLSIPEMMRLLIDEHQFSWDDAFEVCCQVFSYTNHTLMSEALETWPVDMLGKILPRHLQIIFEINDYFLKTLQEQYPNDTDLLGRASIIDESNGRRVRMAWLAVVVSHKVNGVSELHSNLMVQSLFADFAKIFPGRFTNVTNGVTPRRWLAVANPSLSAVLDEHLGRNWRTDLSLLNELQQHCDFPMVNHAVHQAKLENKKRLAEYIAQQLNVVVNPKALFDVQIKRIHEYKRQLMNVLHVITRYNRIKADPDAKWVPRVNIFGGKAASAYYMAKHIIHLINDVAKVINNDPQIGDKLKVVFIPNYSVSLAQLIIPAADLSEQISLAGTEASGTSNMKFALNGALTIGTLDGANVEMLDHVGADNIFIFGNTAEEVEELRRQGYKPREYYEKDEELHQVLTQIGSGVFSPEDPGRYRDLVDSLINFGDHYQVLADYRSYVDCQDKVDELYELQEEWTAKAMLNIANMGYFSSDRTIKEYADHIWHIDPVRL [P0AC86]”: the “total protein half-life in vivo” value runs as follows: under setting [1], 6.11 ± 0.49 h; under setting [2], 5.45 ± 0.2 h; under setting [3], 5.71 ± 0.2 h; under setting [4], 5.65 ± 0.26 h; under setting [5], 5.54 ± 0.24 h; under setting [6], 3.18 ± 0.28 h. Besides, the “total protein half-life in vivo” value is 5.27 ± 0.13 h under setting [7]; 10.1 ± 0.57 h under setting [8]; 5.448 ± 0.0098 h under setting [9]; 10.1 ± 0.65 h under setting [10]; 6.01 ± 0.15 h under setting [11]; 11.9 ± 1 h under setting [12].
For “MIDPKKIEQIARQVHESMPKGIREFGEDVEKKIRQTLQAQLTRLDLVSREEFDVQTQVLLRTREKLALLEQRISELENRSTEIKKQPDPETLPPTL”, the “total protein half-life in vivo” value was found to be 6.97 ± 0.85 h under setting [2]; 6.5 ± 1.2 h under setting [3]; 5.8 ± 0.65 h under setting [4]; 5.79 ± 0.91 h under setting [5]; 3.5 ± 0.19 h under setting [6]; 5.53 ± 0.24 h under setting [7]. The “total protein half-life in vivo” value under setting [9] was 4.27 ± 0.63 h, the “total protein half-life in vivo” value under setting [10] came out at 11.5 ± 5.3 h, the “total protein half-life in vivo” value under setting [11] came to 4.66 ± 1.2 h and the “total protein half-life in vivo” value under setting [12] was determined as 10.8 ± 0.66 h.
With “MINSPRVCIQVQSVYIEAQSSPDNERYVFAYTVTIRNLGRAPVQLLGRYWLITNGNGRETEVQGEGVVGVQPLIAPGEEYQYTSGAIIETPLGTMQGHYEMIDENGVPFSIDIPVFRLAVPTLIH”, the “total protein half-life in vivo” value is, setting by setting: under setting [1], 6.35 ± 0.25 h; under setting [2], 1.66 ± 0.39 h; under setting [3], 0.615 h; under setting [4], 1.4 h; under setting [5], 1.24 ± 0.41 h; under setting [6], 1.4 ± 0.14 h. Also, the “total protein half-life in vivo” value is 2.43 h under setting [7]; 3.11 ± 0.32 h under setting [8]; 1.65 h under setting [9]; 1.98 h under setting [10]; 2.29 ± 0.19 h under setting [11]; 4.37 ± 0.13 h under setting [12].

The record behind these values is the supplement of paper PMC11246515.
